Assay results as given in patent US20220218752A1 (University of Washington, published 2022).

Legend:
[1] = molecular target: T1, Her2-eGFP (hsHER2_ecd_tm-eGFP) (human (printed as hs)); experiment: flow cytometry on mixed K562 cells expressing Her2-eGFP, EGFR-iRFP, both or neither; DARPin pre-complexed with Bcl2-AF594, 3-fold dilutions from 300 nM to 0.4 nM
T1 construct: Her2 ectodomain and transmembrane region fused to eGFP, expressed on K562 cells by lentiviral transduction; also called K562/Her2
Description: (§1) FIG. 21. DARPin binder affinity measured by flow cytometry. Anti-Her2 or anti-EGFR DARPins with N-terminal fusions to Bim were pre-complexed with Bcl2-AF594 and serially diluted 3-fold from 300 nM down to 0.4 nM. This dilution series was used to label a mixed population of K562 cells expressing Her2-eGFP, EGFR-iRFP, both, or neither for one hour at room temperature in a 50 μl incubation volume. The cells were then washed in PBS supplemented with 0.1% bovine serum albumin and analyzed on an LSRII flow cytometer.

[2] = molecular target: T2, EGFR-iRFP (hsEGFR_ecd_tm-iRFP) (human (printed as hs)); experiment: as above
T2 construct: EGFR ectodomain and transmembrane region fused to iRFP, expressed on K562 cells by lentiviral transduction; also called K562/EGFR
T2 sequence (chain, as listed by the source limits assumed): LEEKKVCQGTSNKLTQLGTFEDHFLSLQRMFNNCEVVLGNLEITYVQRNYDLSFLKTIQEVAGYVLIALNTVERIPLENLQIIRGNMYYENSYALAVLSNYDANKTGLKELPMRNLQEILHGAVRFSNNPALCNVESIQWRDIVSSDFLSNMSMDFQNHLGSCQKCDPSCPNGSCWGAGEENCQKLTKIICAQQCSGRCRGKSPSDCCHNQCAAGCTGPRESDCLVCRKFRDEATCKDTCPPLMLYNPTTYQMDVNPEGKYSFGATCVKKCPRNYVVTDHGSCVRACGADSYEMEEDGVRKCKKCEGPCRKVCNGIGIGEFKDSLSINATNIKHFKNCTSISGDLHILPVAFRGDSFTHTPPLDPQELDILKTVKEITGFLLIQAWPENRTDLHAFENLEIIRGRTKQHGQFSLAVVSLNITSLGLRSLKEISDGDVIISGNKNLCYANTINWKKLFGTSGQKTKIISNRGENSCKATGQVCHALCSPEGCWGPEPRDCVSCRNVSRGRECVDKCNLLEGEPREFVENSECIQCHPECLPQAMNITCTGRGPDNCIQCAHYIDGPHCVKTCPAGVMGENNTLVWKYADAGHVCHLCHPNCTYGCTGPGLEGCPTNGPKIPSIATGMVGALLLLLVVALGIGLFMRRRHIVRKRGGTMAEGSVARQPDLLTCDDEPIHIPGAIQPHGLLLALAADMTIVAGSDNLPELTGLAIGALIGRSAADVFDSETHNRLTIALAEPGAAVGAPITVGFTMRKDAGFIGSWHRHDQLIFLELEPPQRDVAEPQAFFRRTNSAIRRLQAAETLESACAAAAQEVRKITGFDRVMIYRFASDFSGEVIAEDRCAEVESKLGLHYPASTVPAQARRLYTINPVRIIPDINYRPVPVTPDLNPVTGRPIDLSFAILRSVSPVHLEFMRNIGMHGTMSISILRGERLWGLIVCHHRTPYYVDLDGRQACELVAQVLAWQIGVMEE
Description: as §1

| Binder | Kd [1] [nM] | Kd [2] [nM] |
| --- | --- | --- |
| Bim_Her2 (Her2 DARPin tagged with N-terminal Bim peptide) (designed binder, also called anti-Her2 DARPin with N-terminal fusion to Bim; Bim-DARPin) MGSHHHHHHGSGSENLYFQGSTDEIWIAQELRRIGDEFNAYYASGSGDLGKKLLEAARAGQDDEVRILMANGADVNAKDEYGLTPLYLATAHGHLEIVEVLLKNGADVNAVDAIGFTPLHLAAFIGHLEIAEVLLKHGADVNAQDKFGKTAFDISIGNGNEDLAEILQKLN | ~10 |  |
| Bim_EGFR (EGFR DARPin tagged with N-terminal Bim peptide) (designed binder, also called anti-EGFR DARPin with N-terminal fusion to Bim; Bim-DARPin) MGSHHHHHHGSGSENLYFQGSTDEIWIAQELRRIGDEFNAYYASGSGDLGKKLLEAARAGQDDEVRILMANGADVNADDTWGWTPLHLAAYQGHLEIVEVLLKNGADVNAYDYIGWTPLHLAADGHLEIVEVLLKNGADVNASDYIGDTPLHLAAHNGHLEIVEVLLKHGADVNAQDKFGKTAFDISIDNGNEDLAEILQKLN |  | ~10 |
